{"source": "patent US20200231671A1", "about": "(E R SQUIBB AND SONS L L C, published 2020)", "binders": {"B1": {"name": "11F2 human monoclonal antibody (antibody, IgG2, V domains shown)", "VH": "QVQLVQSGAEVKKPGASVKVSCKVSGYTLTEVSMHWVRQAPGKGLEWMGGFDPEDGETIYAQKFQGRVTMTEDTSTDTAYMELSSLRSEDTAVYYCATAFVVVVAASDYWGQGTLVTVSS", "VL": "EIVLTQSPATLSLSPGERATLSCRASQSVSSYLAWYQQKPGQAPRLLIYDASNRATGIPARFSGSGSGTDFTLTISSLEPEDFAVYYCQQRSNWPWTFGQGTKVEIK"}}, "target": "T1, human LAG-3 (cell surface) (human, UniProt P18627 23-525)", "T1 construct": "whole, on cells; also called CHO-human LAG-3", "T1 sequence (looked up)": "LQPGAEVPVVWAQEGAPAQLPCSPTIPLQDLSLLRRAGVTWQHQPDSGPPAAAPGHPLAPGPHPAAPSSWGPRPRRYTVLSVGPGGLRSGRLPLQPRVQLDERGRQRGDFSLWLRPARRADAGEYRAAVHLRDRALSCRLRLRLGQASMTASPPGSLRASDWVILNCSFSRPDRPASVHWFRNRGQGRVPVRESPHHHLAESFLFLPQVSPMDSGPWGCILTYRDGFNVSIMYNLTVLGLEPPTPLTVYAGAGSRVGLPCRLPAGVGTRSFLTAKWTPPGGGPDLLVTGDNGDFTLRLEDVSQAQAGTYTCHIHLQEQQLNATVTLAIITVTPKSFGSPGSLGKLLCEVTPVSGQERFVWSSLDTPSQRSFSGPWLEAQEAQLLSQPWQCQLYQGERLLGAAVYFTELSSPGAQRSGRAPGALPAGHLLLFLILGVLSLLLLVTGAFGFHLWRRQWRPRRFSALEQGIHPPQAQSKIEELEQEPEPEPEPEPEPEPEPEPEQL", "experiment": "flow cytometry, CHO cells expressing human LAG-3", "procedure": "To test the ability of the antibodies to bind to cell surface LAG-3 protein, the antibodies were incubated with a CHO cell line that had been transfected to express human LAG-3 on the cell surface. The 25F7, 26H10, 25E3, 8B7, 11F2 and 17E5 monoclonal antibodies were serially diluted with cold lx PFAE buffer (1×PBS+2% FBS, 0.02% sodium azide, 2 mM Na EDTA). For the binding reaction, 50 μl of diluted antibody solution was added to a 50 μl cell suspension containing 2×10⁵ cells and the mixture was incubated on ice for 30 minutes. The cells were then washed two times with 1×PFAE buffer. A 1:100 dilution of FITC-labeled goat anti-human kappa light chain antibody (Bethyl Laboratories, Inc., Cat. # A80-115F) was added and the mixture was incubated for 30 minutes at 4° C., followed by washing twice with cold 1×PFAE buffer. After the final wash, 150 μl of cold 1×PFAE containing 10 μg/mL propidium iodide (Roche Applied Science, Cat #1 348 639) was added to each solution and analysis of antibody binding was carried out by flow cytometry using a FACScalibur flow cytometer (BD Bioscience)."}
{"binder": "B1", "values": [{"measurement": "EC50", "value": 15.1, "unit": "nM"}]}
